Data on two proteins can be found in FireProtDB (doi:10.1016/j.bpc.2006.12.004).

“And” between values parts separate entries of the source, which are not always exact repeats. Equal entries are not always repeated.

For the data set the following is noted: pH 8.4, Thermal, Capillary electrophoresis, whole UniProt chain shown; for unfolding free energy: 25 °C.
[1] abbreviates: Bos taurus, Tris Gly 25 mM 192 mM, NaCl 25 mM.
Where [2] appears, read: Bos taurus, Tris Gly fructose 25 mM 192 mM 1.21 M, NaCl 25 mM.
[3] abbreviates: Bos taurus, Tris Gly sucrose 25 mM 192 mM 0.15 M, NaCl 25 mM.
The mark [4] stands for this setting: Bos taurus, Tris Gly sucrose 25 mM 192 mM 0.31 M, NaCl 25 mM.
Setting [5] is: Bos taurus, Tris Gly sucrose 25 mM 192 mM 0.47 M, NaCl 25 mM.
The mark [6] stands for this setting: Bos taurus, Tris Gly sucrose 25 mM 192 mM 0.63 M, NaCl 25 mM.
[7] abbreviates: Bos taurus, Tris Gly sucrose 25 mM 192 mM 0.96 M, NaCl 25 mM.
Setting [8] is: Aspergillus oryzae (strain ATCC 42149 / RIB 40), Tris Gly 25 mM 192 mM, NaCl 30 mM.
Setting [9] is: Aspergillus oryzae (strain ATCC 42149 / RIB 40), Tris Gly fructose 25 mM 192 mM 0.57 M, NaCl 30 mM.
[10] abbreviates: Aspergillus oryzae (strain ATCC 42149 / RIB 40), Tris Gly fructose 25 mM 192 mM 1.21 M, NaCl 30 mM.
Setting [11] is: Aspergillus oryzae (strain ATCC 42149 / RIB 40), Tris Gly fructose 25 mM 192 mM 1.52 M, NaCl 30 mM.
Where [12] appears, read: Aspergillus oryzae (strain ATCC 42149 / RIB 40), Tris Gly sucrose 25 mM 192 mM 0.15 M, NaCl 30 mM.
Where [13] appears, read: Aspergillus oryzae (strain ATCC 42149 / RIB 40), Tris Gly sucrose 25 mM 192 mM 0.31 M, NaCl 30 mM.
Setting [14] is: Aspergillus oryzae (strain ATCC 42149 / RIB 40), Tris Gly sucrose 25 mM 192 mM 0.47 M, NaCl 30 mM.
Setting [15] is: Aspergillus oryzae (strain ATCC 42149 / RIB 40), Tris Gly sucrose 25 mM 192 mM 0.63 M, NaCl 30 mM.
Where [16] appears, read: Aspergillus oryzae (strain ATCC 42149 / RIB 40), Tris Gly sucrose 25 mM 192 mM 0.80 M, NaCl 30 mM.

B1: Alpha-lactalbumin wild type, P00711 (protein)
chain: MMSFVSLLLVGILFHATQAEQLTKCEVFRELKDLKGYGGVSLPEWVCTTFHTSGYDTQAIVQNNDSTEYGLFQINNKIWCKDDQNPHSSNICNISCDKFLDDDLTDDIMCVKKILDKVGINYWLAHKALCSEKLDQWLCEKL
Regarding B1, the unfolding free energy by setting is: under setting [1], 3.3 kcal/mol; (Bos taurus, Tris Gly fructose 25 mM 192 mM 0.57 M, NaCl 25 mM) 4.5 kcal/mol; under setting [2], 5.6 kcal/mol; under setting [3], 3.8 kcal/mol; under setting [4], 4.6 kcal/mol; under setting [5], 5.3 kcal/mol. In addition, the unfolding free energy reads like this: under setting [6], 5.7 kcal/mol; under setting [7], 7 kcal/mol. Moreover, the Tm (in general, the temperature at which the thermal transition is half complete) by setting is: under setting [1], 56.1 °C and 56 °C; under setting [2], 61.6 °C; (Bos taurus, Tris Gly fructose 25 mM 192 mM 1.83 M, NaCl 25 mM) 63.2 °C; under setting [3], 56.3 °C; under setting [4], 57.5 °C; under setting [5], 59 °C. Moreover, the midpoint of thermal melting (Tm) amounted to 60.5 °C under setting [6] and 62.4 °C under setting [7]. The “heat capacity change of unfolding” value under setting [1] worked out at 2.1 kcal/mol/K. Besides, the “unfolding enthalpy (van 't Hoff)” value under setting [1] was 69 kcal/mol.

B2: Guanyl-specific ribonuclease T1 wild type, P00651 (protein)
chain: MMYSKLLTLTTLLLPTALALPSLVERACDYTCGSNCYSSSDVSTAQAAGYQLHEDGETVGSNSYPHKYNNYEGFDFSVSSPYYEWPILSSGDVYSGGSPGADRVVFNENNQLAGVITHTGASGNNFVECT
Take B2: the unfolding free energy under setting [8] is 8.2 kcal/mol; the unfolding free energy (Aspergillus oryzae (strain ATCC 42149 / RIB 40), Tris Gly fructose 25 mM 192 mM 0.29 M, NaCl 30 mM) turned out to be 9.1 kcal/mol; the unfolding free energy under setting [9] was 9.5 kcal/mol; the unfolding free energy under setting [10] was 10.5 kcal/mol; the unfolding free energy under setting [11] came out at 11.2 kcal/mol; the unfolding free energy under setting [12] was found to be 9.1 kcal/mol. In addition, the unfolding free energy was 9.5 kcal/mol under setting [13], 10.2 kcal/mol under setting [14], 10.6 kcal/mol under setting [15] and 11.1 kcal/mol under setting [16]. In addition, the midpoint of thermal melting (Tm) is 62.6 °C and 62.5 °C under setting [8]; 64.5 °C under setting [9]; 66 °C (Aspergillus oryzae (strain ATCC 42149 / RIB 40), Tris Gly fructose 25 mM 192 mM 0.89 M, NaCl 30 mM); 66.5 °C under setting [10]; 68 °C under setting [11]; 63.6 °C under setting [12]. The midpoint of thermal melting (Tm) is, setting by setting: under setting [13], 64.7 °C; under setting [14], 65.9 °C; under setting [15], 66.5 °C; under setting [16], 67.1 °C. Further, the “heat capacity change of unfolding” value under setting [8] was 1.3 kcal/mol/K. In addition, the “unfolding enthalpy (van 't Hoff)” value under setting [8] turned out to be 98 kcal/mol.
